# Measured values reported in the PETadex activity labels (doi:10.1128/aem.01704-22).
# B1: unnamed (protein)
# chain: MALYPSARWVLDRMAERGTRPFNEVPVERARQQFDAMMAGAPRPEVARTEDRTVPGPAGDIPVRIYWPQQQTLPLLLVYFHGGGWIMGSIESHDPTCRAIANVAGCIVVSVGYRLAPEHKFPEPLEDCYAAVRWAEENAASLGADPSLLAVGGDSAGGNLAAAVSLLARDRGGPRLAHQVLAYPVLSHGAAFPSYEENADGYFLTREMMLYCWRQYLRDEKDGDDPYASPLKASELSGLPTATIITAEHDPLRDEAEAYGVRLAQAGVPNYCLRYVGMIHGFLSLDNLLPPGRHALWSVATGLRLAATETHKRA
# B2: unnamed (protein)
# chain: MALDPGAAALLQQMAQAGVPPFNQMTVQQARQSMTGLAGTAPKYPVAKVEDRTIPGPAGQIPVRIYWPISGQKVGLVVYYHGGGWVICDLETHDGTCRQLANASDCIVMSVDYRLAPEHKFPAAVEDCYAAAAWAAENAATFGVDPSRLVVAGDSAGGNLAAVVALLAKERGGPRLAHQVLIYPVTDYSFDRPSYRENAEGYLLTRDAMEWFWRHYLNSDADGQNPLASPLRAPDLRGLPSATVITAEYDPLRDEGEAYAQRLMEAGVPTTCVRYLGQIHGFVTLEHVLPAGRQALLALGATIKGVLTGALGGQPAAA
# Substrate: p-NP-C2
# Assay: not given
# Settings: pH 9; 30 °C
Protein,Km [µM],kcat [s⁻¹],kcat/Km [M⁻¹ s⁻¹]
B1,50,42,839000
B2,220,57.1,260000

# Substrate: p-NP-C4
# Assay: not given
# Settings: pH 9; 30 °C
Protein,Km [µM],kcat [s⁻¹],kcat/Km [M⁻¹ s⁻¹]
B1,60,66.2,1.1e+06
B2,80,8.77,110000

# Substrate: p-NP-C6
# Assay: not given
# Settings: pH 9; 30 °C
Protein,Km [µM],kcat [s⁻¹],kcat/Km [M⁻¹ s⁻¹]
B1,40,1.45,36200
B2,90,0.318,3530

# Substrate: PET
# Assay: Proxy for plastic degradation [Released monomer concentration (HPLC/LC-MS) (BHET)]
# Settings: pH 8
row,Protein,Proxy for plastic degradation [mM]
1,B1,0.126
2,B2,0.075
